Reference: publication PMC12246476, “Enhancement of enzymatic activity by biomolecular condensates through pH buffering” (Nature Communications, 2025)

T1: Aryl Alcohol Oxidase (AAOx) (Pleurotus eryngii, UniProt O94219)
T1 construct: gene aao; N-terminal His-tag, pET-15b, E. coli BL21-GOLD; FAD added during purification; IMAC and SEC
T1 sequence (O94219 22-593): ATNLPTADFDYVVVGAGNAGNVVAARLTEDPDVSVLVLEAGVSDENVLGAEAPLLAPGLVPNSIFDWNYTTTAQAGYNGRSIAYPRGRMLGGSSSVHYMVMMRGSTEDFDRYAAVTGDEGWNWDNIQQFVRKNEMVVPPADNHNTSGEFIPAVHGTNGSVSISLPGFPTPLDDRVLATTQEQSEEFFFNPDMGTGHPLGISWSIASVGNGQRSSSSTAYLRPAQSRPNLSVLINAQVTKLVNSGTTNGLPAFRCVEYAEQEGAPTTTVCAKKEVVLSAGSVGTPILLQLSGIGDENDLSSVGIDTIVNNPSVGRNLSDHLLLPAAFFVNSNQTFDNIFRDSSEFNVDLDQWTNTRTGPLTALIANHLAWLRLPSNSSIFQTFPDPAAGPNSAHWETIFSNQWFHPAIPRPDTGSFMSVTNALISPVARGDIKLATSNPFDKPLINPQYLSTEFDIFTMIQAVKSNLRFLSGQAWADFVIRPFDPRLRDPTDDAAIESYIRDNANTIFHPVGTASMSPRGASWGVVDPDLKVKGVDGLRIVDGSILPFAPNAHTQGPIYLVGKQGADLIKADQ

B1: BTL2 (Bacillus thermocatenulatus Lipase 2) (Geobacillus thermocatenulatus) (protein)
chain: ASPRANDAPIVLLHGFTGWGREEMLGFKYWGGVRGDIEQWLNDNGYRTYTLAVGPLSSNWDRACEAYAQLVGGTVDYGAAHAAKHGHARFGRTYPGLLPELKRGGRVHIIAHSQGGQTARMLVSLLENGSQEEREYAKAHNVSLSPLFEGGHHFVLSVTTIATPHDGTTLVNMVDFTDRFFDLQKAVLKAAAVASNVPYTSQVYDFKLDQWGLRRQPGESFDHYFERLKRSPVWTSTDTARYDLSIPGAEKLNQWVQASPNTYYLSFSTERTHRGALTGNYYPELGMNAFSAVVCAPFLGSYRNEALGIDDRWLENDGIVNTVSMNGPKRGSSDRIVPYDGTLKKGVWNDMGTCNVDHLEVIGVDPNPSFDIRAFYLRLAEQLASLRP
notes: N-terminal His-tag, pET-15b, E. coli BL21-GOLD; IMAC and SEC

Experiments:
[1] = target: T1, Aryl Alcohol Oxidase (AAOx); experiment: absorbance of cinnamyl aldehyde at […] nm; assay type: biochemical; conditions: 5 nM enzyme, 250 µM substrate, pH 5.5-7.5, 10 mM ionic strength Tris/Bis-Tris, 30 mM NaCl
[2] = substrate: CCCC(=O)Oc1ccc2c(C)cc(=O)oc2c1; experiment: fluorescence of released 4-methylumbelliferone, initial rates, Michaelis-Menten fit; assay type: biochemical, Geobacillus thermocatenulatus; conditions: homogeneous enzyme, 0.5 µM, 24 mM Tris, 10 mM NaCl, pH 7.5, substrate solubility kept concentrations below the KM
Source text: fluorescence of released 4-methylumbelliferone, initial rates, Michaelis-Menten fit on BTL2 (Bacillus thermocatenulatus Lipase 2)

| Molecule | absorbance of cinnamyl aldehyde at 310 nm [1] | Km [2] [µM] | Vmax [2] [µM/min] | kcat [2] [s⁻¹] |
| --- | --- | --- | --- | --- |
| OC/C=C/c1ccccc1 [CAlc, Cinnamyl Alcohol] | measuring the rate of the oxidation reaction of CAlc to CAld catalyzed by AAOx | – | – | – |
| B1 | – | 713 ± 281 | 126 | 4.3 ± 1.2 |
